Results from FireProtDB (doi:10.1021/bi052621g).
“And” between values parts separate entries of the source, which are not always exact repeats. Equal values may be shown once.

B1: Major seminal plasma glycoprotein PSP-II wild type, P35496 (protein)
chain: MKLGTAIPWALLLSTATLVSTARINGPDECGRVIKDTSGSISNTDRQKNLCTWTILMKPDQKVRMAIPYLNLACGKEYVEVFDGLLSGPSYGKLCAGAAIVFLSTANTMTIKYNRISGNSSSPFLIYFYGSSPGSEY
B2: Major seminal plasma glycoprotein PSP-I wild type, P35495 (protein)
chain: MKLGSAIPWALLFSTATLISTGWGLDYHACGGRLTDDYGTIFTYKGPKTECVWTLQVDPKYKLLVSIPTLNLTCGKEYVEILEGAPGSKSLGKFCEGLSILNRGSSGMTVKYKRDSGHPASPYEIIFLRDSQG

Details: Sus scrofa, pH 7, Thermal, Hepes 20 mM, reversible: No, whole UniProt chain shown

Protein | Tm (CD) | Tm (DSC, ZnCl2 5 mM) | unfolding enthalpy (calorimetric) (DSC, ZnCl2 5 mM) | unfolding enthalpy (calorimetric) (DSC)
B1 | 52.6 °C | – | – | –
B2 | – | 51.1 °C | 17.4 kcal/mol | 18.4 kcal/mol and 20.8 kcal/mol
